Results as given in article PMC12296736.
Like-named read-outs stand apart in the source and are kept apart here.

What was measured:
His-nOsBZR4 (His-OsBZR4) [1] = target: T1, His-nOsBZR4 (His-OsBZR4) (Oryza sativa (rice), UniProt Q6EUF1 1-108); assay: EMSA
T1 sequence: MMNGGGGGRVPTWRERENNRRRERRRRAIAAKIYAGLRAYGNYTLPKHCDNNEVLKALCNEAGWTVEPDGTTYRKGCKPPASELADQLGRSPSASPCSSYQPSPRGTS

His-nOsBZR4 (His-OsBZR4) [2] = target: T1, His-nOsBZR4 (His-OsBZR4); assay: EMSA; remark: listed apart in the source

Binder	binding result (His-nOsBZR4 (His-OsBZR4) [1])	binding result (His-nOsBZR4 (His-OsBZR4) [2])
YUC11-EMSA (dsDNA) DNA 1: TTCCGTATAAATAGCATGTGCTCTCCGA DNA 2: TCGGAGAGCACATGCTATTTATACGGAA	binds	
YUC4-EMSA (dsDNA) DNA 1: CGACCGAGCATATGCTCCGTGTTGGTGTATATATACTCGT DNA 2: ACGAGTATATATACACCAACACGGAGCATATGCTCGGTCG		binds
